The numbers were not newly measured in paper PMC8892085, which cites them from elsewhere.

The target of this data set is TLR4 (Homo sapiens) (UniProt O00206).
TLR4 (Homo sapiens), sequence (O00206 24-839): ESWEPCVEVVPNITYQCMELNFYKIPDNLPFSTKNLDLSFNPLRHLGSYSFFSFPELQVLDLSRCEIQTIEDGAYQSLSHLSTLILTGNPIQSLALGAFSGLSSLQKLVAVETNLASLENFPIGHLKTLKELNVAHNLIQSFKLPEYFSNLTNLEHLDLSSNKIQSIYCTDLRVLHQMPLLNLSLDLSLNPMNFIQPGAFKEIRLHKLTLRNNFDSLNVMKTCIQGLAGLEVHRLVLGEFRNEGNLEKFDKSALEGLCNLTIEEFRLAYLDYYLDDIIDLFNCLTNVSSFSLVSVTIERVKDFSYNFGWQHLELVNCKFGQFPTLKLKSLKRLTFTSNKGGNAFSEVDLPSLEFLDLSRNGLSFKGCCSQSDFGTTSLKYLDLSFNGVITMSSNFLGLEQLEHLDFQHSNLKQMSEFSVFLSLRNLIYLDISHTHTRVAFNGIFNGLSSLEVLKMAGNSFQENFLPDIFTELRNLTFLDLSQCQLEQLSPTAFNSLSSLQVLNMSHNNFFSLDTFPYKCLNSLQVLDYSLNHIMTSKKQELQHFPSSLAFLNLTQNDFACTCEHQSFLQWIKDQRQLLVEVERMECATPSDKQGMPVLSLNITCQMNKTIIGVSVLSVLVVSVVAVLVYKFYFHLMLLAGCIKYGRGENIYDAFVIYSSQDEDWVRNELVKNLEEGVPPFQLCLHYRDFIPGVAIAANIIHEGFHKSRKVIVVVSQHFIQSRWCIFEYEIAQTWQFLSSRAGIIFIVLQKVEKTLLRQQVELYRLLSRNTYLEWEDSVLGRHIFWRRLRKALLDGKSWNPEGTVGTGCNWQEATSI

HMGB1, sequence (P09429 whole entry): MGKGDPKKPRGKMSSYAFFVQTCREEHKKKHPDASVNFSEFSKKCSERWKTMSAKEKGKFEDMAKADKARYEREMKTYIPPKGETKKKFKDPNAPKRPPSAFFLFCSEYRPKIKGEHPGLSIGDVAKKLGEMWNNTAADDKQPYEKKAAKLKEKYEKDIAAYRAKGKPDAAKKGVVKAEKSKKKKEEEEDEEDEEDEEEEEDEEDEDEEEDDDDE

For the substance HMGB1 (from UniProt P09429), the Kd is 600 nM.

For orientation: Kd means a measure of binding affinity in units of concentration.
